From patent publication US20210198347A1 (Chugai, published 2021)

T1: recombinant human C1r2s2 Flag/His tetramer (human, UniProt P09871 16-688; P00736 18-705)
T1 construct: whole entries named; also called hc1r2s2; rC1r2s2
T1 chain 1: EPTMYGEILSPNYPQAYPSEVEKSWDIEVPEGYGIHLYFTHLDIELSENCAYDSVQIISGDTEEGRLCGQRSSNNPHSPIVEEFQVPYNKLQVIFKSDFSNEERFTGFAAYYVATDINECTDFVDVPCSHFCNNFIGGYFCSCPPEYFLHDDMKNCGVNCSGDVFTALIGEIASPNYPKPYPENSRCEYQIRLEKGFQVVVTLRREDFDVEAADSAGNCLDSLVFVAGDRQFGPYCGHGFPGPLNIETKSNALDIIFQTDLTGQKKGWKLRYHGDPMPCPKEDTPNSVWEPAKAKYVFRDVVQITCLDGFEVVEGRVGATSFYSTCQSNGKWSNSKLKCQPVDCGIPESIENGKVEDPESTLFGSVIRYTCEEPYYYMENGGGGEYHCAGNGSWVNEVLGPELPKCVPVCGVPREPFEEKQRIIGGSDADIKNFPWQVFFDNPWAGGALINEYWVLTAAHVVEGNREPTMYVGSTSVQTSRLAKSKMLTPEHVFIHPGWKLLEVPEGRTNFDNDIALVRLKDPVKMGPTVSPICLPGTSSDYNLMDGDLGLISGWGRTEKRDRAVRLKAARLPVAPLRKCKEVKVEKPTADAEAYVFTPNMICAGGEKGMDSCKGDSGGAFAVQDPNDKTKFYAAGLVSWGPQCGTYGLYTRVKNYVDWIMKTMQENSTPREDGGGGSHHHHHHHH
T1 chain 2: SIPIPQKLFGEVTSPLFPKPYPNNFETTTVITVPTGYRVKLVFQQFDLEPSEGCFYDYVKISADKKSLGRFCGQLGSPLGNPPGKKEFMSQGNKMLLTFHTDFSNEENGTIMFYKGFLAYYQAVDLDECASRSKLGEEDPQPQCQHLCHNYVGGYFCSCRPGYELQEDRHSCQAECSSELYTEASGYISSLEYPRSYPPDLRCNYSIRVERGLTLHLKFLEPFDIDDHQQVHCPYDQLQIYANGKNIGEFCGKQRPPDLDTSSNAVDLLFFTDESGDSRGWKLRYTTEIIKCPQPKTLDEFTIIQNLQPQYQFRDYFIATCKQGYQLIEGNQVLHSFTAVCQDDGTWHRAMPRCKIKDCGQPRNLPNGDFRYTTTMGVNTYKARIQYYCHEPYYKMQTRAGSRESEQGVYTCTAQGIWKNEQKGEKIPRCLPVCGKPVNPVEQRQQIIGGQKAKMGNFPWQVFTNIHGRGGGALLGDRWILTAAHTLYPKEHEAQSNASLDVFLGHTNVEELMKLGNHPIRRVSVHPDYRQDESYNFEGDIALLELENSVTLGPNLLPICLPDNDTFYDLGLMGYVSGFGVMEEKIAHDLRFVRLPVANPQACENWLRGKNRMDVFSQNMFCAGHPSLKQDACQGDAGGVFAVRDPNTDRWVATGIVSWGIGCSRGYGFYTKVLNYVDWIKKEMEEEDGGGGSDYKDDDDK

B1: COS0631gg-SG1148 (antibody, human IgG1, kappa, V domains shown)
VH: QSVEESGGRLVTPGTPLTLTCTVSGFSLSRYSMGWVRQAPGKGLEWIGIIYADGGAYYASWAKGRFTISKTSTTMDLKVTSPTTEDTATYFCARGQFINSNEFFNPWGPGTLVTVSS
VL: QVLTQTASSVSAVVGGTVTINCQASQSLHNNKNLAWYQQKPGQPPRLLIYYASTLASGVSSRFKGSGSGTQFTLTISDLECDDAATYYCAGEFSCSNGDCNAFGGGTKVEIKR
B2: COS0637cc-SG1148 (antibody, human IgG1, kappa, V domains shown)
VH: QSLEESGGRLVTPGTPLTLTCTASGFSLSAYAMNWVRQAPGKGLEWIGLIYGSGSTFYASWAKGRFTISKTSTTVDLKMTSLTTEDTATYFCARGRSVNYNSDFKLWGPGTLVTVSS
VL: QVLTQTPSSVSAAVGGTVTINCQASQSLHDKKNLAWYQHKPGQRPNLLIYGASTLESGVPSRFKGSGSGTEYTLTISDLECDDAAAYYCQGEFSCSSADCNTFGGGTKVEIKR

Target: T1, recombinant human C1r2s2 Flag/His …
Experiment: SPR displacement (37 degrees C, pH 7.4): C1r2s2 captured by anti-His, C1q 100 nM pre-bound, antibody 500 nM at 10 micro L/min; time from antibody injection until the antibody sensorgram falls below the buffer sensorgram; competitor native human C1q
Protocol: An anti-His antibody (GE-Healthcare) was immobilized onto all flow cells of a CM4 sensor chip using an amine coupling kit (GE Healthcare). The antibodies, recombinant human C1r2s2 Flag/His tetramer and native human C1q (Comptech A099) were prepared in pH 7.4 buffer (20 mM ACES, 150 mM NaCl, 1.2 mM CaCl₂, 1 mg/mL BSA (IgG-free), 1 mg/mL CMD, 0.05% Tween 20, 0.005% NaN₃, pH 7.4). Recombinant human C1r2s2 Flag/His tetramer was first captured onto the sensor surface by the anti-His antibody (“hc1r2s2” in FIG. 2A). The capture levels were aimed at 200 resonance unit (RU). Native human C1q was injected at 100 nM to have a capture of 200 RU (“hc1q” in FIG. 2A), followed by antibody injection at 500 nM at 10 micro L/min for 1200 sec immediately. The sensor surface was regenerated each cycle with 10 mM Glycine-HCl (pH 1.5). For the antibodies with the C1q displacement function, the response unit of Sensorgram 2 (large dotted line; “C1r2s2+C1q+Ab” in FIGS. 2A and 2C) is lower than the response unit in Sensorgram 1 (small dotted line; “C1r2s2+C1q+buffer” in FIGS. 2A and 2C) after the time point where Sensorgrams 1 and 2 cross (“time point of crossover”). Depending on the time when Sensorgram 2 crosses over Sensorgram 1, COS0499 was categorized as a fast displacement variant. […] COS0448 was in the middle of fast displacement and slow displacement.
The time point of crossover is identified by subtraction of the buffer response (Sensorgram 1) from the antibody (Ab) response (Sensorgram 2), and referring to the time point when the differential value changes from positive to negative (Table 4). The time from the start of Ab injection is indicated in Table 4 as “time point of crossover”.

Row | Binder | Time point of crossover (post-injection)
1 | B1 | 736 s
2 | B2 | 764 s
